Molecular target: transferrin receptor 1 (TfR1), human (human, UniProt P02786 1-760)
Assay: FACS binding, Raji cells, 4 °C

Chain of transferrin receptor 1 (TfR1), human (P02786 whole entry): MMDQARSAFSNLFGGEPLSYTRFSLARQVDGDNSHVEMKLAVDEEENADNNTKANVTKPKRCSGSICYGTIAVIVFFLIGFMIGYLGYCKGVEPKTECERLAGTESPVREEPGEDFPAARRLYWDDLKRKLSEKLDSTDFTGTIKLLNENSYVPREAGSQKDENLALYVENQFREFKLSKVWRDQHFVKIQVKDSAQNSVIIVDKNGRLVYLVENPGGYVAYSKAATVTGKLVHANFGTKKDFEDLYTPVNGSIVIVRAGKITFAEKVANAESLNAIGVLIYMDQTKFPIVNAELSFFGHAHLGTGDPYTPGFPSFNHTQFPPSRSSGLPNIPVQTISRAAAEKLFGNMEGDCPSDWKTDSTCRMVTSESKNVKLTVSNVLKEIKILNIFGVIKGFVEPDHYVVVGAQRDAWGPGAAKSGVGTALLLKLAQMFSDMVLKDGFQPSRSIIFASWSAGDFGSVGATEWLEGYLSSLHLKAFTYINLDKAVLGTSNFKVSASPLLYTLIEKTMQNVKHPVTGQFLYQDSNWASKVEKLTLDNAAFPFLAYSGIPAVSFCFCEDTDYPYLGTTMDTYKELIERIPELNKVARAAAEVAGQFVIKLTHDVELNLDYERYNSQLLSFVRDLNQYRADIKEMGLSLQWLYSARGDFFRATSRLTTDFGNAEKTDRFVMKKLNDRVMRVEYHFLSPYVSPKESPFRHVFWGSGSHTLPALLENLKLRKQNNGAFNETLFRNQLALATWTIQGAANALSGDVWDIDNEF

- EC50: 1.13 nM
B1: F12-IgG1 (IgG1 anti-TfR1 F12 antibody) (antibody, V domains shown)
VH: QVQLQESGGGLVQPGGSLRLSCAASGFSFNTYTMHWVRQAPGKGLEWVADIAYDGSTKYYADSVKGRFTISRDNAKNSLYLQMNSLRAEDTAVYYCARDAVAGEGYFDLWGRGTLVTVSS
VL: QSALTQDPAVSVALGQTVRITCQGDSLRSYYASWYQQLPGTAPKLLIYRNNQRPSGVPDRFSGSKSGTSASLAISGLRSEDEADYYCAAWDDSLSAWVFGGGTKLTVLG
